# Assay results reported in publication PMC9426568, “Glucose-1,6-Bisphosphate, a Key Metabolic Regulator, Is Synthesized by a Distinct Family of α-Phosphohexomutases Widely Distributed in Prokaryotes” (mBio, 2022).
# T1: Sll0726 (Synechocystis sp. PCC 6803, UniProt P74643)
# T1 construct: gene pgm; recombinant, Strep-tagged, expressed in E. coli Rosetta-gami (DE3), purified
# T1 sequence (P74643 1-567): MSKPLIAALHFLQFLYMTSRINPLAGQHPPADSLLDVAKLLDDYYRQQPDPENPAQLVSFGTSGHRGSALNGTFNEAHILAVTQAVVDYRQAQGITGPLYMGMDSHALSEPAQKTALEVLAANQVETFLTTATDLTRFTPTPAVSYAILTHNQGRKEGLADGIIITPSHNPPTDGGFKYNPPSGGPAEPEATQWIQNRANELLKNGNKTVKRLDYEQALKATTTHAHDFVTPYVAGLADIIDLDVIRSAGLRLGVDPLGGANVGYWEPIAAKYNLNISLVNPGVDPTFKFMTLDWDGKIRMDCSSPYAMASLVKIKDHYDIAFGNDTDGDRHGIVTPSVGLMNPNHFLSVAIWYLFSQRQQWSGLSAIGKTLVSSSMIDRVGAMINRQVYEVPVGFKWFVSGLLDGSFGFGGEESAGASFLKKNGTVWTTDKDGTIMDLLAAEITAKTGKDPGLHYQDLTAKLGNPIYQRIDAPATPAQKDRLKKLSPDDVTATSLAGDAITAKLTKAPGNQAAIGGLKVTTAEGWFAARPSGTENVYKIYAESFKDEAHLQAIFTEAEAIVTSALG
# B1: Slr1334 (Synechocystis sp. PCC 6803 substr. Kazusa) (protein)
# chain: MVYTPAPIKFGTDGWRGVIAAEFTFERVVLVAAAAAQVLAAEFGSSGREHRLIVGYDRRFMAEQFALLVAQTVQELGFEVWLSESYAPTPAFSWAAHHENALGALVLTASHNPANYLGLKVKGAFGGSVGSDVTEKIEAQLQNSLPQPQAGGSLQYFDPWPSYCQGLQAKVNVQPIREAVQQGKLRVFADVMHGAAASGLERLLGCPIDEINGDRDPLFGGASPEPLPKYVPKLLAALQTAAKAGGPELRVGLIFDGDADRIAAVDGQGNFLSSQGLIPILIYHLATQKGLQGEIVKTVSGSDLIPKLAELYGIPLTETAIGYKYIADRMLTSPVLIGGEESGGIGYGGHIPERDALLSALYVLETVVQSQQDISEQYGRLQEKVCFVSEYDRIDLPLASMDVRTALVQTLNENPLTAIAGEQVTDLLTTDGYKFRMAGGGWLLIRFSGTEPLLRLYCEAPTSSRVQTVLHWAKDWANGVTPAKPAQSSH
# notes: recombinant, expressed in E. coli Rosetta-gami (DE3), purified
# B2: Sll0726 (Synechocystis sp. PCC 6803 substr. Kazusa) (protein)
# chain: T1 sequence (P74643 1-567)
# notes: recombinant, Strep-tagged, expressed in E. coli Rosetta-gami (DE3), purified
# Legend:
# Sll0726 = molecular target: T1, Sll0726; test: G6PDH-coupled PGM assay, NADPH at […] nm; assay type: biochemical; details: inhibitor, 100 μM, varied Glc-1P, without Glc-1,6-BP; 10 mM MgCl2, pH 7.5, 30°C
# purified protein [1] = substrate: O=P(O)(O)OC[C@H]1O[C@H](OP(=O)(O)O)[C@H](O)[C@@H](O)[C@@H]1O; test: purified protein; assay type: biochemical, Synechocystis sp. PCC 6803; details: co-substrate 0.5 mM Frc-6P, 10 mM MgCl2, 150 mM KCl, HEPES-KOH pH 7.5, 30°C, lowest measurable concentration already saturating
# purified protein [2] = substrate: O=P(O)(O)O[C@H]1O[C@H](CO)[C@@H](O)[C@H](O)[C@H]1O; test: purified protein; assay type: biochemical, Synechocystis sp. PCC 6803; details: with 60 μM Glc-1,6-BP (activator), 10 mM MgCl2, 150 mM KCl, HEPES-KOH pH 7.5, 30°C
Molecule,"G6PDH-coupled PGM assay, NADPH at 340 nm (Sll0726)",kcat (purified protein [1]) [s⁻¹],kcat/Km (purified protein [1]) [M⁻¹ s⁻¹],Km (purified protein [2]) [µM],kcat (purified protein [2]) [s⁻¹],kcat/Km (purified protein [2]) [M⁻¹ s⁻¹]
"O=P(O)(O)OC[C@H]1OC(O)(COP(=O)(O)O)[C@@H](O)[C@@H]1O (stereo partly drawn) [Frc-1,6-BP]","effect of different concentrations of Frc-1,6-BP on Sll0726 and observed major inhibition",,,,,
B1,,1.2 ± 0.03,600000,90 ± 20,14.4 ± 0.7,158000
B2,,,,190 ± 40,415 ± 30.6,3.04e+06
